First the molecules themselves.
B1: Plasmodesmata-located protein 5 (PDLP5), EGFP or mCherry fusion [Arabidopsis thaliana] / itself (parent)
chain: SPTDNYIYAVCSPAKFSPSSGYETNLNSLLSSFVTSTAQTRYANFTVPTGKPEPTVTVYGIYQCRGDLDPTACSTCVSSAVAQVGALCSNSYSGFLQMENCLIRYDNKSFLGVQDKTLILNKCGQPMEFNDQDALTKASDVIGSLGTGDGSYRTGGNGNVQGVAQCSGDLSTSQCQDCLSDAIGRLKSDCGMAQGGYVYLSKCYARFSVGGSHARQTPGPNFGHEGEKGNKDDNGVGKTLAIIIGIVTLIILLVVFLAFVGKCCRKLQDEKWCK
B2: Plasmodesmata-located protein 5 (PDLP5), EGFP or mCherry fusion [Arabidopsis thaliana] / Plasmodesmata-located protein 5 (PDLP5), EGFP or mCherry fusion [Arabidopsis thaliana] (parent)
chain 1: B1 chain
chain 2: B1 chain

The first assay covers variants of B1. Put plainly: FRET. The settings on record: with itself; at plasmodesmata; EGFP-fused donor and mCherry-fused acceptor; n=12; parent: 20; read off a plot.
For chain 1 A241V G245V, the response (% FRET efficiency) came out at 17.

The variants in the next assay derive from B2. Put plainly: FRET. The settings on record: with Plasmodesmata-located protein 5 (PDLP5), at plasmodesmata, PDLP5-EGFP donor and PDLP5VV-mCherry acceptor, n=21, parent: 20, read off a plot.
Consider chain 1 A241V G245V, for which the response (% FRET efficiency) turned out to be 16.

Staying with this assay, now noted: with Plasmodesmata-located protein 5 (PDLP5), at plasmodesmata, PDLP5VV-EGFP donor and PDLP5-mCherry acceptor, n=15, parent: 20, read off a plot.
Regarding chain 1 A241V G245V, the response (% FRET efficiency) was 19.

The record behind these values is PMC7275062.
